{"source": "patent US20090202619A1", "about": "“POLYOXYALKYLENE CHAIN-CONTAINING LIPID DERIVATIVE AND LIPID FILM STRUCTURE CONTAINING SUCH DERIVATIVE” (THE UNIVERSITY OF TOKUSHIMA, priority 2005, published 2009)", "set-up": "species or system male ddY mouse", "details": "mouse, in vivo, iv", "from_the_text": "Using the methylpolyoxyethylenecarbamyl-glycyl-glycyl-glycyl-distearoylphosphadylethanolamine (DSPE-GGG-PEG2000) obtained in Example 5 or the methylpolyoxyethylenecarbamyl-distearoylphosphadylethanolamine (DSPE-PEG2000), egg yolk phosphatidylcholine (EPC) or hydrogenated egg yolk phosphatidylcholine (HEPC), and cholesterol, a composition in the blending ratios shown in Table 2 below was weighed in an egg plant flask, and the liposome solutions of Example 9 and Comparative Examples 4 to 5 were obtained by the same method as (1) above but using doxorubicin in place of the fluorescent dye. To monitor the blood kinetics of the liposome per se, 40 μCi/μmol ^3H-cholesterylhexadecyl ether (^3H-CHE) was added. […]\nNext, each liposome was administered to a male ddY mouse from the tail vein (25 mg lipid/kg), blood was collected 2 minutes, 30 minutes, 1 hour, 2 hours, 4 hours, 8 hours, and 24 hours after the administration, the radioactivity in blood was measured to determine the concentration of the liposome per se, and doxorubicin was measured by the fluorescence method to determine the doxorubicin concentration at that time point. Because the doxorubicin that has leaked from the liposome is quickly distributed in various tissues, doxorubicin concentrations determined by this method are considered to reflect the amount of doxorubicin retained in the liposome."}
{"substance": "methylpolyoxyethylenecarbamyl-glycyl-glycyl-glycyl-distearoylphosphadylethanolamine [Example 4]", "values": [{"measurement": "cleavage of the lipid derivative in blood", "result": "minimally cleaved in blood"}, {"measurement": "influence on the drug-releasing characteristics of liposome", "result": "did not influence the drug-releasing characteristics of liposome"}]}
